These results are taken from patent EP4335870A1 (NantCell, Inc., dated 2024).

The test addresses SARS-CoV-2 Spike S1, wildtype (Table 13) (SARS-CoV-2, UniProt P0DTC2 16-685).

Positions count from the first letter of the chain named.

B1: N-612-014 (antibody, V domains shown)
VH: EVQLVESGGGLVQPGGSLRLSCAASGFTFSSYAMTWVRQAPGKGLEWVSYISGSGGGTYYADSVKGRFTISRDNSKNTLYLQMNSLRAEDTAVYYCARDRWASGWLAFDVWGQGTLVTVSS
VL: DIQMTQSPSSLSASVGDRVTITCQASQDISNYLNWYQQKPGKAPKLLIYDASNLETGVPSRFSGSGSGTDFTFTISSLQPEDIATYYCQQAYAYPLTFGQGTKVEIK
In turn, B1 came in with a Kd of 11.4 nM.

B2: N-612-017 (antibody, V domains shown)
VH: EVQLVESGGGLVQPGGSLRLSCAASGFTFSSYAMHWVRQAPGKGLEWVSAIWGSGSNTYYADSVKGRFTISRDNSKNTLYLQMNSLRAEDTAVYYCARGRDLAAFTKTAFDVWGQGTLVTVSS
VL: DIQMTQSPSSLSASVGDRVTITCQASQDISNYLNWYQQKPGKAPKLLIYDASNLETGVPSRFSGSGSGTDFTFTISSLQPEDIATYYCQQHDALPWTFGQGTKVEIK
Turning to B2, the Kd was 12 nM.

B3: N-612-004 (antibody, V domains shown)
VH: EVQLVESGGGLVQPGGSLRLSCAASGFTFSSYYMHWVRQAPGKGLEWVSAISGSGGYTYYADSVKGRFTISRDNSKNTLYLQMNSLRAEDTAVYYCARDRDHAYDWGFDVWGQGTLVTVSS
VL: DIQMTQSPSSLSASVGDRVTITCQASQDISNYLNWYQQKPGKAPKLLIYDASNLETGVPSRFSGSGSGTDFTFTISSLQPEDIATYYCQQWADWPLTFGQGTKVEIK
Regarding B3, the Kd stood at 0.62 nM.

B4: N-612-056 (antibody, V domains shown)
VH: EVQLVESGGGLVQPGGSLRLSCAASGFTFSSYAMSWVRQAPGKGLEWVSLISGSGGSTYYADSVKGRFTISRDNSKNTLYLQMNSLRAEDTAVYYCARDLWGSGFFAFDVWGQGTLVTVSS
VL: B3 VL with W91D, D93G, W94T
B4 registered a Kd of 4.5 nM.
